Data taken from patent publication US6680177B2, “Low molecular weight heparin assay, system and reagent therefor” (Cardiovascular Diagnostics, Inc., priority 2001, dated 2004).
Residue numbers refer to the chain shown, from its start.

B1: Abciximab (antibody, chains of the INN, looked up, V domains shown)
VH: EVQLQQSGTVLARPGASVKMSCEASGYTFTNYWMHWVKQRPGQGLEWIGAIYPGNSDTSYIQKFKGKAKLTAVTSTTSVYMELSSLTNEDSAVYYCTLYDGYYVFAYWGQGTLVTVSA
VL: EIVLTQSPVTLSVTPGDSVSLSCRASRDISNNLHWFQQTSHESPRLLIKYASQSMSGIPSRFSGSGSGTDFTLSINSVETEDFGMYFCQQTNSWPYTFGGGTKLEIK
modifications: Fab
notes: antiplatelet agent tested as interferent
B2: Alteplase (protein, UniProt P00750 36-562, looked up)
Tissue-type plasminogen …: SYQVICRDEKTQMIYQQHQSWLRPVLRSNRVEYCWCNSGRAQCHSVPVKSCSEPRCFNGGTCQQALYFSDFVCQCPEGFAGKCCEIDTRATCYEDQGISYRGTWSTAESGAECTNWNSSALAQKPYSGRRPDAIRLGLGNHNYCRNPDRDSKPWCYVFKAGKYSSEFCSTPACSEGNSDCYFGNGSAYRGTHSLTESGASCLPWNSMILIGKVYTAQNPSAQALGLGKHNYCRNPDGDAKPWCHVLKNRRLTWEYCDVPSCSTCGLRQYSQPQFRIKGGLFADIASHPWQAAIFAKHRRSPGERFLCGGILISSCWILSAAHCFQERFPPHHLTVILGRTYRVVPGEEEQKFEVEKYIVHKEFDDDTYDNDIALLQLKSDSSRCAQESSVVRTVCLPPADLQLPDWTECELSGYGKHEALSPFYSERLKEAHVRLYPSSRCTSQHLLNRTVTDNMLCAGDTRSGGPQANLHDACQGDSGGPLVCLNDGRMTLVGIISWGLGCGQKDVPGVYTKVTNYLDWIRDNMRP
modifications: alteplase
notes: fibrinolytic agent tested as interferent
B3: Tenecteplase (protein, UniProt P00750 36-562, looked up, variant T103N N117Q K296A H297A R298A R299A)
Tissue-type plasminogen …: B2 Tissue-type plasminogen … with T103N, N117Q, K296A, H297A, R298A, R299A
modifications: tenecteplase
notes: as for B2

Test system: citrated whole blood (CWB)
Test: Interference testing for Rapidpoint ENOX test in citrated whole blood
Type: biochemical
Details: for EFFECT on ENOX test: CWB; for sensitivity of the ENOX test to the agent: in vitro, citrated whole blood

Molecule	EFFECT on ENOX test (0-3600 ng/ml)	sensitivity of the ENOX test to the agent	EFFECT on ENOX test (1000-3200 ng/ml)	EFFECT on ENOX test (0-10,000 ng/ml)
B1	No effect at 0-3600 ng/ml	insensitive	–	–
B2	–	insensitive	No effect at 1000-3200 ng/ml	–
B3	–	insensitive	–	No effect at 0-10,000 ng/ml
